Results published in doi:10.1101/2022.04.15.488344 (bioRxiv, 2022).

Biological target: the molecule itself
Assay: crystal structure

B1: ERα ligand binding domain (LBD) (305–555) with a Y537S mutation (domain or fragment, UniProt P03372 305-555, looked up)
chain: SLALSLTADQMVSALLDAEPPILYSEYDPTRPFSEASMMGLLTNLADRELVHMINWAKRVPGFVDLTLHDQVHLLECAWLEILMIGLVWRSMEHPGKLLFAPNLLLDRNQGKCVEGMVEIFDMLLATSSRFRMMNLQGEEFVCLKSIILLNSGVYTFLSSTLKSLEEKDHIHRVLDKITDTLIHLMAKAGLTLQQQHQRLAQLLLILSHIRHMSNKGMEHLYSMKCKNVVPLSDLLLEMLDAHRLHAPTSR
stoichiometry N: 2
